Experimental data reported in article PMC8669613 (Cell reports, 2021).

Tests used:
[1] = target: T1, GST-SdhA-CBM2 (1029-1260aa) (Legionella pneumophila, UniProt Q6RCQ3 1029-1260); test: ELISA
[2] = target: T1, GST-SdhA-CBM2 (1029-1260aa); test: pull-down

Row | Binder | binding result [1] | fold pull-down above the GST control [2]
1 | His-tagged ASH domain of OCRL (536aa-678aa) (domain or fragment) not shown | binds | 
2 | His-tagged ASH/RhoGAP domain of OCRL (536aa-901aa) (domain or fragment) not shown | binds | 
3 | GFP-tagged, full-length OCRL (natural protein) not shown |  | ~47 fold
